Data set [1] can be described thus: Activity to degrade phosphoric acid swollen cellulose. In kind it is biochemical. As to the method: The term “identity” refers to the percentage of amino acid residues identical to and amino acid residues analogous to the other amino acid residues in all the amino acid residues overlapped when an optimum alignment is performed by introducing gaps or no gaps into two amino acid sequences and then aligning the two amino acid sequences. Such an identity can be found using a method known by persons skilled in the art, sequence analysis software, and the like (a known algorithm such as BLAST or FASTA). The term “endoglucanase activity” is as defined above and can be determined by adding an enzyme solution to a substrate solution of phosphoric acid swollen cellulose that has been dissolved in 50 mM acetic acid-sodium acetate buffer (pH 5.2) or the like, performing 1 hour of reaction at 30° C. to 85° C., stopping the reaction by changing the pH if necessary, and then determining the concentration of glucose in the reaction solution using a glucose determination kit, for example.
The mutants obtained in Comparative Example 1 were compared in terms of activity by a technique similar to that in Example 3. The concentration (g/L) of glucose generated by each parent endoglucanase under the above reaction conditions was determined to be 100%.

Data set [2] is described as follows: Inhibition experiment with vanillin: degradation of phosphoric acid swollen cellulose. In kind it is biochemical. The note with it: enzyme 0.5 μM, 1 hour, 50° C., parent at 0 mM = 100%.
The nature of data set [3]: Inhibition experiment with ferulic acid: degradation of phosphoric acid swollen cellulose. In kind it is biochemical. To be noted: enzyme 0.5 μM, 1 hour, 50° C., parent at 0 mM = 100%.
The nature of data set [4]: Saccharification of lignocellulose 1 with Celluclast and endoglucanase. The format is biochemical, Rice straw. To be noted: 5 wt % Lignocellulose 1, pH 5.2, 50° C., 24 hours; 1.0 mg/mL cellulase + 0.1 mg/mL endoglucanase. The protocol: (§1) Rice straw was used as cellulose. The cellulose was added to a small reactor (Taiatsu Techno Corporation, TVS-N2 (30 ml)), and then cooled with liquid nitrogen. An ammonia gas was fed to the reactor, thereby completely immersing the sample in the liquid ammonia. The reactor was closed using its lid, and then left to stand at room temperature for 15 minutes. Subsequently, treatment was performed for 1 hour in an oil bath at 150° C. After treatment, the reactor was removed from the oil bath, an ammonia gas leak was immediately performed within a draft chamber. The reactor was vacuumed using a vacuum pump to 10 Pa for drying. The resultant was used as lignocellulose 1 in the following examples.
(§2) The changes in the amount of glucose generated when the enzyme composition had been caused to act on lignocellulose substrates were compared. The substrates were prepared by suspending 5 wt % lignocelluloses (1 to 3) (prepared in Reference Example 3) in 50 mM acetate buffer (pH5.2). Reactions were performed at 50° C. for 24 hours. The concentrations of the generated glucose were measured after adequate sampling. As a filamentous bacterium-derived cellulase mixture, commercially available Trichoderma reesei-derived cellulase (Celluclast, Sigma) was used. As endoglucanases, the mutant endoglucanases prepared in Example 2 and the wild-type endoglucanases prepared in Reference Example 1 were separately used. The following quantities of enzymes were added: 1.0 mg/mL cellulase, and 0.1 mg/mL endoglucanase (in an amount one tenth that of the cellulase).

The nature of data set [5]: Saccharification of lignocellulose 2 with Celluclast and endoglucanase. The note with it: 5 wt % Lignocellulose 2, pH 5.2, 50° C., 24 hours; 1.0 mg/mL cellulase + 0.1 mg/mL endoglucanase. The format is biochemical, Rice straw. As to the method: (§3) Rice straw was used as cellulose. Cellulose was immersed in a 1% aqueous sulfuric acid solution, and then autoclaved for 30 minutes at 150° C. (Nitto Koatsu Co. Ltd.). After treatment, the resultant was subjected to solid-liquid separation into an aqueous sulfuric acid solution (hereinafter, referred to as “dilute-sulfuric-acid-treated solution”) and cellulose treated with sulfuric acid. Next, the cellulose treated with sulfuric acid was mixed and agitated with the dilute-sulfuric-acid-treated solution so that the solid content concentration was 10 wt %. Then the mixture was adjusted to around pH 5 using sodium hydroxide. The resultant was used as lignocellulose 2 for the following examples.
as §2

Data set [6] in a line: Saccharification of lignocellulose 3 with Celluclast and endoglucanase. In kind it is biochemical, Rice straw. The note with it: 5 wt % Lignocellulose 3, pH 5.2, 50° C., 24 hours; 1.0 mg/mL cellulase + 0.1 mg/mL endoglucanase. The protocol: (§4) Rice straw was used as cellulose. The cellulose was immersed in water, and then autoclaved with agitation at 180° C. for 20 minutes (Nitto Koatsu Co. Ltd.). Pressure at this time was 10 MPa. After treatment, a solution component (hereinafter, referred to as “hydrothermally treated solution”) and the treated biomass component were subjected to solid-liquid separation by centrifugation (3000 G). The thus treated biomass component was used as lignocellulose 3 for the following examples.
as §2

The nature of data set [7]: Saccharification of lignocellulose 1 with Trichoderma reesei culture solution and endoglucanase. The format is biochemical, Rice straw. To be noted: Lignocellulose 1, 24 hours; cellulase 1.0 mg/mL + endoglucanase 0.1 mg/mL + β-glucosidase (Novozyme 188) 0.01 mg/mL. The protocol: as §1, §2
(§5) Lignocelluloses (1-3) prepared in Reference Example 3 were used as substrates. The Trichoderma reesei culture solution prepared in Reference Example 4 was used as a filamentous bacterium-derived cellulase mixture. Lignocelluloses (1-3) were hydrolyzed in a manner similar to that in Example 7, except for the quantities of the enzymes added: cellulase (1.0 mg/mL); endoglucanase (0.1 mg/mL (in an amount one tenth that of the cellulase); and β-glucosidase (Novozyme 188) (0.01 mg/mL (in an amount one hundredth that of the cellulase).

A short description of data set [8]: Saccharification of lignocellulose 2 with Trichoderma reesei culture solution and endoglucanase. The format is biochemical, Rice straw. The note with it: Lignocellulose 2, 24 hours; cellulase 1.0 mg/mL + endoglucanase 0.1 mg/mL + β-glucosidase (Novozyme 188) 0.01 mg/mL. The protocol:
as §3, §2, §5

A short description of data set [9]: Saccharification of lignocellulose 3 with Trichoderma reesei culture solution and endoglucanase. In kind it is biochemical, Rice straw. To be noted: Lignocellulose 3, 24 hours; cellulase 1.0 mg/mL + endoglucanase 0.1 mg/mL + β-glucosidase (Novozyme 188) 0.01 mg/mL. The protocol:
as §4, §2, §5

Setting [10] is: Comparative Example 2, technique similar to Example 3, parent endoglucanase = 100%.
The mark [11] stands for this setting: 1% phosphoric acid swollen cellulose, pH 5.2, enzyme 0.5 μM, 1 hour, 50° C., glucose generated by each parent endoglucanase = 100%.

Numbering of substitutions follows the chain as printed. Names and notes keep the numbering of the source.

B1: EGPh(W273Y): comparative mutant of EGPh, the 273rd tryptophan substituted with tyrosine, SEQ ID NO: 49 (protein)
chain: MEGNTILKIVLICTILAGLFGQVVPVYAENTTYQTPTGIYYEVRGDTIYMINVTSGEETPIHLFGVNWFGFETPNHVVHGLWKRNWEDMLLQIKSLGFNAIRLPFCTESVKPGTQPIGIDYSKNPDLRGLDSLQIMEKIIKKAGDLGIFVLLDYHRIGCTHIEPLWYTEDFSEEDFINTWIEVAKRFGKYWNVIGADLKNEPHSVTSPPAAYTDGTGATWGMGNPATDWNLAAERIGKAILKVAPHWLIFVEGTQFTNPKTDSSYKWGYNAWYGGNLMAVKDYPVNLPRNKLVYSPHVYGPDVYNQPYFGPAKGFPDNLPDIWYHHFGYVKLELGYSVVIGEFGGKYGHGGDPRDVIWQNKLVDWMIENKFCDFFYWSWNPDSGDTGGILQDDWTTIWEDKYNNLKRLMDSCSKSSSSTQSVIRSTTPTKSNTSKKICGPAILIILAVFSLLLRRAPR
modifications: Pyrococcus horikoshii EGPh W273Y
For the molecule B1, the Relative activity in data set [1] (setting [10]) is recorded as 100%.

B2: EGPh(W273F): comparative mutant of EGPh, tryptophan substituted with phenyl alanine, SEQ ID NO: 50 (protein)
chain: B1 chain with Y273F
modifications: Pyrococcus horikoshii EGPh W273F
Turning to B2, the Relative activity in [1] (setting [10]) came to 100%.

B3: EGSh Wild-type: Staphylothermus hellenicus-derived endoglucanase, SEQ ID NO: 19, parent endoglucanase (protein)
chain: MPARTRIACAVILLLVFLALYIAWPVEGSFLKQQPYNELRGRVLGSNIQIPKDHIPYYHIVNGTIYMDDKLIHLFGVSWFGFELPDHIVYGLWARNWKDILKDIKEMGFNAIRLPFCHESITPGTKPVPGRISYSLNPDLRNLTSLEIMEKIISYANELNIFVLLDYHRIGCRYIEPLWYTDNFSEEQYIKDWVFLAQKFGKYPNVIGADIKNEPHDSASWGTGDNKTDFRLFAERVGQAILQVAPHWLIFIEGVQYTHVPEIDGRNPYSCFWGENLMGVKDYPVRLPKDKIVYSPHVYGPSVYNMPYFNDPEFPRNLPKIWELHFGYLKELGYAIVIGEWGGRYVGKDKVWQDAFADWLIQKGIYDFFYWCLNPESGDTGGIFKSDWRTVNQDKLNLIHRIINAASQAQASTISGKHDWKTYLVLIAPTLLPVLILVILVLLIIKRRYTKKQ
modifications: Staphylothermus hellenicus EGSh
On to B3, for which the Relative activity in data set [1] (setting [11]) came out at 100%. For the same molecule, the “Relative activity to degrade phosphoric acid swollen cellulose” value is 100% in [2] (vanillin 0 mM); 40% in [2] (vanillin 5 mM); 35% in data set [2] (vanillin 10 mM); 30% in data set [2] (vanillin 15 mM); 100% in data set [3] (ferulic acid 0 mM); 65% in [3] (ferulic acid 5 mM). In addition, the “Relative activity to degrade phosphoric acid swollen cellulose” value in data set [3] (ferulic acid 10 mM) is on record as 55%; in data set [3] (ferulic acid 15 mM), 50%. Besides, the “Concentration of glucose generated, Celluclast + Wild-type” value in [4] was determined as 12 g/L; in data set [5], 11 g/L; in data set [6] it was 12 g/L. The entries for the “Concentration of glucose generated, Culture solution + Wild-type” value in [7], in data set [8] and in data set [9] were 9 g/L, 8 g/L and 9 g/L, respectively.

B4: EGSh Mutant: mutant EGSh, SEQ ID NO: 20; residue corresponding to 273rd tryptophan substituted with alanine (protein)
chain: B3 chain with W273A
modifications: Staphylothermus hellenicus EGSh W273A
notes: residue corresponding to 273rd tryptophan substituted with alanine
Regarding B4, the Relative activity in data set [1] (setting [11]) is on record as 100%. For the same molecule, the “Relative activity to degrade phosphoric acid swollen cellulose” value stood at 100% in data set [2] (vanillin 0 mM); 90% in data set [2] (vanillin 5 mM); 85% in [2] (vanillin 10 mM); 80% in data set [2] (vanillin 15 mM); 100% in data set [3] (ferulic acid 0 mM); 95% in data set [3] (ferulic acid 5 mM). The “Relative activity to degrade phosphoric acid swollen cellulose” value in data set [3] (ferulic acid 10 mM) stood at 85%; in data set [3] (ferulic acid 15 mM), 80%. Further, the “Concentration of glucose generated, Celluclast + Mutant” value in data set [4] amounted to 14 g/L; in data set [5], 15 g/L; in [6], 15 g/L. Also, the entries for the “Concentration of glucose generated, Culture solution + Mutant” value in [7], in data set [8] and in [9] were 11 g/L, 12 g/L and 12 g/L, respectively.
